{"source": "patent US20050282743A1", "about": "“Molecular interactions in cells” (Arbor Vita Corporation, priority 2001, published 2005)", "test_in_all_cases": "G' assay (10 uM PL peptide), results of TABLE 7 and TABLE 12", "format_in_all_cases": "binding", "key": {"[1]": {"biological_target": "T1, PDZ protein (GST-PDZ fusion) (Homo sapiens, UniProt Q8NI35)", "T1 construct": "made in house; host or cells: E. coli (DH5alpha, BL21 or JM109)", "settings": "PDZ INADL, PDZ Domain 8", "excerpt": "(§1) Each page of TABLE 7 and 12 includes seven columns. The columns in each table are numbered from left to right such that the left-most column in each table is column 1 and the right-most column in each table is column 7. Thus, the first column in each table is labeled “AVC ID”; this column simply lists an internal reference number used to refer to the carboxyl-terminal amino acids of the PL proteins listed in the second column. […] All PL peptides were biotinylated at the amino-terminus and the sequences of these PL peptides are presented in TABLE 8 (see end of specification).\n(§2) This column provides the gene name for the PDZ portion of the GST-PDZ fusion that interacts with the PDZ-ligand to the left. For PDZ domain-containing proteins with multiple domains, the domain number is listed to the right of the PDZ (i.e., in column 5 labeled “PDZ Domain”), and indicates the PDZ domain number when numbered from the amino-terminus to the carboxy-terminus.\n(§3) The third column labeled “Peptide Optimal Concentration” in the tables is a number reflective of the binding interaction between the PL protein and PDZ protein. […] The column labeled “Protein Optimal Concentration” refers to the protein concentration used to assay PL interaction (in ug/ml); a ‘0’ is indicative of 5 ug/ml protein concentration; any other value represents the concentration (in ug/ml) used to determine the dissociation constant for a given interaction.\n(§4) Finally, the seventh column labeled “Classification” is another measure of the level of binding. In particular, it provides an absorbance value at 450 nm which indicates the amount of PL peptide bound to the PDZ protein. The following numerical values have the following meanings: ‘1’—A450 nm 0-1; ‘2’—A450 nm 1-2; ‘3’—A450 nm 2-3; ‘4’—A450 nm 3-4; ‘5’—A450 nm of 4 more than 2× repeated; ‘0’—A450 nm 0, i.e., not found to interact. Thus, higher numbers indicate stronger interactions.\n(§5) For convenience, the assay conditions described in this section are referred to as the “G′ assay” and the “G″ assay,” with the specific conditions described in the preceding section on G assays being referred to as the “G^0 assay.” The “G′ assay” is identical to the “G^0 assay” except at step (2) the peptide concentration is 10 uM instead of 20 uM."}, "[2]": {"biological_target": "T2, PDZ protein (GST-PDZ fusion) (Homo sapiens, UniProt O75970)", "T2 construct": "made in house; host or cells: E. coli (DH5alpha, BL21 or JM109)", "T2 sequence (O75970 whole entry, the tested form may be a part)": "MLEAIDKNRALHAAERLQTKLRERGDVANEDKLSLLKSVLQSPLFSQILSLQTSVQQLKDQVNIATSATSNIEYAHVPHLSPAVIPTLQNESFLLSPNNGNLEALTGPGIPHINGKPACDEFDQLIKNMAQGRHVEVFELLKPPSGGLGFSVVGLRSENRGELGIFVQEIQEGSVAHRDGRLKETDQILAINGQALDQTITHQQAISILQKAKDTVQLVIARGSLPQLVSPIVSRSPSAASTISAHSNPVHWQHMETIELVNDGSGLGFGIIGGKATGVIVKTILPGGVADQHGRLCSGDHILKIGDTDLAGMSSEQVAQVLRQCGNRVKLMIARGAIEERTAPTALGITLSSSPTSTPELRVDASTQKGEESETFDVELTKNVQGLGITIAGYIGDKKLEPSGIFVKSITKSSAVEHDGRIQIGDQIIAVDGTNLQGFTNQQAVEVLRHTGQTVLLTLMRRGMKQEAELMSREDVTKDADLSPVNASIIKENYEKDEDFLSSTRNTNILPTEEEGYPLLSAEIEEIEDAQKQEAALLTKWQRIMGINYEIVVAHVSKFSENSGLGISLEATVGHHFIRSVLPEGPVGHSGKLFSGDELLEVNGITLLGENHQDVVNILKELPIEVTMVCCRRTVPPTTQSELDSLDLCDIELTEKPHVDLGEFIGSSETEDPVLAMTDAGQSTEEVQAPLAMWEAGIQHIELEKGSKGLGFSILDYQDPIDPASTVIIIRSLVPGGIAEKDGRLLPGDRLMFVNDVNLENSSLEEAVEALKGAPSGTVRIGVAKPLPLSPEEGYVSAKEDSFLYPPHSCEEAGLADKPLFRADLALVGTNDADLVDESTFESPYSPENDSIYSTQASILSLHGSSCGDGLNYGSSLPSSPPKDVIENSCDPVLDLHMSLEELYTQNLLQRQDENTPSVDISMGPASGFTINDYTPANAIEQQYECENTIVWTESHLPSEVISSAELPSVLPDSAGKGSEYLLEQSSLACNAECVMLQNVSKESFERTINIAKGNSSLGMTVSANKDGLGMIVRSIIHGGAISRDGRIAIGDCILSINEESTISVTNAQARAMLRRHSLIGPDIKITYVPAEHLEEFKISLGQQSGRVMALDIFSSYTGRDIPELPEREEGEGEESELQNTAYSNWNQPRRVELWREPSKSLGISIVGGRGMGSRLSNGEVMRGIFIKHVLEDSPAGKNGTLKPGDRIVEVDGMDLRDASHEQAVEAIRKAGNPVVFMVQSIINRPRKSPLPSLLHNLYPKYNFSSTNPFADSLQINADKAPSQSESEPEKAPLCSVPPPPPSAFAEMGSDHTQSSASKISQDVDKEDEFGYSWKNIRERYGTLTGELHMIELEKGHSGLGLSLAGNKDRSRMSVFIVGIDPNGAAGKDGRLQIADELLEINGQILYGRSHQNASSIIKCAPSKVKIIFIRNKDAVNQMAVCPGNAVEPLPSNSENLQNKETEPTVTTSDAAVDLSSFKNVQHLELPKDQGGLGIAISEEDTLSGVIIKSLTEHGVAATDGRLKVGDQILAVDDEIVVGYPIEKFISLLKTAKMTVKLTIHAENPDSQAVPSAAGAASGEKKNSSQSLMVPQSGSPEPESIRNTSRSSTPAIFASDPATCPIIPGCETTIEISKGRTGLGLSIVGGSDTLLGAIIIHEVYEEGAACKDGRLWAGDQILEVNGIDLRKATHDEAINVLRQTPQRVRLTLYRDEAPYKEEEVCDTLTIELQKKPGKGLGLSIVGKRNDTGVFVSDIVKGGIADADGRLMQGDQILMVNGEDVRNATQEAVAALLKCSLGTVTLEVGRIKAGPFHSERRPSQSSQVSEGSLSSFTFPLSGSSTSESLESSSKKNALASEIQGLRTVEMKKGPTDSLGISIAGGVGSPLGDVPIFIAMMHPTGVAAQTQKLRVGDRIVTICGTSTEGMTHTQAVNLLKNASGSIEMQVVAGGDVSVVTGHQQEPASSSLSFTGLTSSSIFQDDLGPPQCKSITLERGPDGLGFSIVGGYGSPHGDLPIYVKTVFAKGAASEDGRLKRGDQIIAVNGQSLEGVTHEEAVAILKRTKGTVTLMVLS", "excerpt": "as §1, §2, §3, §4, §5"}, "[3]": {"system": "PDZ protein (GST-PDZ fusion)", "settings": "PDZ SHANK, PDZ Domain 1", "excerpt": "as §1, §2, §3, §4, §5"}, "[4]": {"biological_target": "T3, PDZ protein (GST-PDZ fusion) (Homo sapiens, UniProt Q6P0Q8)", "T3 construct": "made in house; host or cells: E. coli (DH5alpha, BL21 or JM109)", "T3 sequence (Q6P0Q8 whole entry, the tested form may be a part)": "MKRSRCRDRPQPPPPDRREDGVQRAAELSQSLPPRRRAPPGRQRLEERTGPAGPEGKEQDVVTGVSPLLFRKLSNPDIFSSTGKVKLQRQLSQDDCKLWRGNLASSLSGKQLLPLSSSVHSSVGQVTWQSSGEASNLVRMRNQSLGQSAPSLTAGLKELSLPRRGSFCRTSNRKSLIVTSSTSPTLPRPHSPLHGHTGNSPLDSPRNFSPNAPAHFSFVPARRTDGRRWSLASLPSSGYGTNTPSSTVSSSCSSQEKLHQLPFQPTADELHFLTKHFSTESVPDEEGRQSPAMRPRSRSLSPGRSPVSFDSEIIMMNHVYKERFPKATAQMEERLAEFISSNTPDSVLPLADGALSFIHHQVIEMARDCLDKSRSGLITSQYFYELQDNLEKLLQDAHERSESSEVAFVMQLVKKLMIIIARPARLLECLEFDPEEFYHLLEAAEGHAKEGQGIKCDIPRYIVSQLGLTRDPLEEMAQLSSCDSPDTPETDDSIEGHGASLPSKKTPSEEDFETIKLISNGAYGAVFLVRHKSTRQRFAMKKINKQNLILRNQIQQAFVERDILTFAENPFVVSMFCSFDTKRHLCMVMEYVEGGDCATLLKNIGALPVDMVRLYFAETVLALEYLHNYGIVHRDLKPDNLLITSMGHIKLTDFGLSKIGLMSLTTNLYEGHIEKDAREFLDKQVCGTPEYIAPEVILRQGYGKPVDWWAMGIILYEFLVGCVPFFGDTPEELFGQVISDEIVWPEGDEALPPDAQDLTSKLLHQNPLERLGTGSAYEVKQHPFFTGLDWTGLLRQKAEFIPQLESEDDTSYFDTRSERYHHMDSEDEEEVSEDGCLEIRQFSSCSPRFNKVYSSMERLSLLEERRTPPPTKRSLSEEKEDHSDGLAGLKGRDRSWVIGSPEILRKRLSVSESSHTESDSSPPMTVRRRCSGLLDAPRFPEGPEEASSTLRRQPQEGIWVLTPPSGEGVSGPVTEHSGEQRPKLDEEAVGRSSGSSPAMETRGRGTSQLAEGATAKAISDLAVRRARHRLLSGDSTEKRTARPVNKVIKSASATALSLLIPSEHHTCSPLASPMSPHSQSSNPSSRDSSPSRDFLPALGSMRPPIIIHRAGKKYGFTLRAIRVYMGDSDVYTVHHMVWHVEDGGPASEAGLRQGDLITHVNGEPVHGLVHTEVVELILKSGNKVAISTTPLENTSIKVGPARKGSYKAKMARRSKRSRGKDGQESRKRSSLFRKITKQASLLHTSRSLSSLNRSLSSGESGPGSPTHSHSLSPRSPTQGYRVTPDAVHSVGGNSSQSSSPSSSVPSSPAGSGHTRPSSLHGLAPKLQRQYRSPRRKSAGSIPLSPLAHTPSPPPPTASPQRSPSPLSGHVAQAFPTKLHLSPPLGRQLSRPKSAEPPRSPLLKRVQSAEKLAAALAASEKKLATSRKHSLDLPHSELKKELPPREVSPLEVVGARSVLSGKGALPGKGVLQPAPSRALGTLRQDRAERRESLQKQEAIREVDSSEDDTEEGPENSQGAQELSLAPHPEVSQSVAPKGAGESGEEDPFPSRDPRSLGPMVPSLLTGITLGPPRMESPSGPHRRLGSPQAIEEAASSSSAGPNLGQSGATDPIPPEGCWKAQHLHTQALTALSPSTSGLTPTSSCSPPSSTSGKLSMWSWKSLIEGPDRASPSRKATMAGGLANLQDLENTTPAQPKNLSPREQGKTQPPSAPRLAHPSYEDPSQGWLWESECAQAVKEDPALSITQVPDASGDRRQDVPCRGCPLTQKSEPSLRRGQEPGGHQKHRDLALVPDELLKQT", "excerpt": "as §1, §2, §3, §4, §5"}, "[5]": {"biological_target": "T4, PDZ protein (GST-PDZ fusion) (Homo sapiens, UniProt Q02410)", "T4 construct": "made in house; host or cells: E. coli (DH5alpha, BL21 or JM109)", "T4 sequence (Q02410 1-837)": "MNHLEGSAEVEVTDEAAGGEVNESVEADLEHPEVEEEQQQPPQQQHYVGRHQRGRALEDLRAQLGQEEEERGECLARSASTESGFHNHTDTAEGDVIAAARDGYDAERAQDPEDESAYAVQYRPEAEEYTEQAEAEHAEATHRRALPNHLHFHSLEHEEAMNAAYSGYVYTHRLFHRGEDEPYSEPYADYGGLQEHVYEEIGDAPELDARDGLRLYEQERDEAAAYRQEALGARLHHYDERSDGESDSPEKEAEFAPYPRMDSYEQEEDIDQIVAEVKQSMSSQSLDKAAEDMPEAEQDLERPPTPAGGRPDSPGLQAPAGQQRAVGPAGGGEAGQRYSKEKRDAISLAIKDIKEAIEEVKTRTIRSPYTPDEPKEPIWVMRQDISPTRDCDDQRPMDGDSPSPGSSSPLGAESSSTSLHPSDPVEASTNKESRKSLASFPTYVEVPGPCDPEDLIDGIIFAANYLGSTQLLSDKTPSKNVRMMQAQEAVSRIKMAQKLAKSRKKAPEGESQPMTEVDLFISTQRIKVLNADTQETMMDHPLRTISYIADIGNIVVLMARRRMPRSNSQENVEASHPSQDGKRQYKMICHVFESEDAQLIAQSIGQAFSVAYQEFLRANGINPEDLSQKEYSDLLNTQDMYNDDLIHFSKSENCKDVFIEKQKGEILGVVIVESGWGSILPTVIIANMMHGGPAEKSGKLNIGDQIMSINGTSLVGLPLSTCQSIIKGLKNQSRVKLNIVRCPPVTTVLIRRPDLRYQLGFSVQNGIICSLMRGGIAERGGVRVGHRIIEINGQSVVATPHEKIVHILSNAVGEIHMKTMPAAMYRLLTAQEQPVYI", "settings": "PDZ Mint 1, PDZ Domain 1, 2", "excerpt": "as §1, §2, §3, §4, §5"}, "[6]": {"biological_target": "T5, PDZ protein (GST-PDZ fusion) (Homo sapiens, UniProt O15018)", "T5 construct": "made in house; host or cells: E. coli (DH5alpha, BL21 or JM109)", "settings": "PDZ AIPC, PDZ Domain 1", "excerpt": "as §1, §2, §3, §4, §5"}, "[7]": {"settings": "PDZ KIAA807, PDZ Domain not given"}}, "note": "Ends that are not written are not given here. * marks the point of attachment. Biotin = O=C1N[C@H]2[C@H](CS[C@H]2CCCCC(=O)*)N1"}
{"sequence": "ENLELPVNPSSVVSERISSV (Biotin-ENLELPVNPSSVVSERISSV) [serotonin receptor 5-HT-2C]", "values": [{"measurement": "Classification", "setting": "[1]", "value": "1 (A450 nm 0-1)"}, {"measurement": "Classification", "setting": "[2]; PDZ MUPP-1, PDZ Domain 10", "value": "1 (A450 nm 0-1)"}]}
{"sequence": "KPQIAALKEETEEEVQDTRL (Biotin-KPQIAALKEETEEEVQDTRL)", "values": [{"measurement": "Classification", "setting": "[3]", "value": "1 (A450 nm 0-1)"}, {"measurement": "Classification", "setting": "[4]; PDZ KIAA0807(S), PDZ Domain 1", "value": "2 (A450 nm 1-2)"}, {"measurement": "Classification", "setting": "[4]; [7]", "value": "1 (A450 nm 0-1)"}]}
{"sequence": "LGYSIPSRSGASGLDKRDYV (Biotin-LGYSIPSRSGASGLDKRDYV) [claudin 9]", "values": [{"measurement": "Classification", "setting": "[5]", "value": "1 (A450 nm 0-1)"}]}
{"sequence": "TALRIKKTLAKMVESQDVKI (Biotin-TALRIKKTLAKMVESQDVKI) [bone morphogenetic protein receptor]", "values": [{"measurement": "Classification", "setting": "[2]; PDZ MUPP-1, PDZ Domain 3", "value": "1 (A450 nm 0-1)"}, {"measurement": "Classification", "setting": "[2]; PDZ MUPP-1, PDZ Domain 7", "value": "1 (A450 nm 0-1)"}, {"measurement": "Classification", "setting": "[2]; PDZ MUPP-1, PDZ Domain 9", "value": "1 (A450 nm 0-1)"}, {"measurement": "Classification", "setting": "[4]; PDZ KIAA0807(S), PDZ Domain 1", "value": "1 (A450 nm 0-1)"}]}
{"sequence": "KAGYRAPRSYPKSNSSKEYV (Biotin-KAGYRAPRSYPKSNSSKEYV) [claudin 7]", "values": [{"measurement": "Classification", "setting": "[5]", "value": "4 (A450 nm 3-4)"}]}
{"sequence": "VISKATPALPTVSISSSAEV (Biotin-VISKATPALPTVSISSSAEV) [Clasp-1]", "values": [{"measurement": "Classification", "setting": "[6]", "value": "1 (A450 nm 0-1)"}, {"measurement": "Classification", "setting": "[5]", "value": "1 (A450 nm 0-1)"}, {"measurement": "Classification", "setting": "[4]; PDZ KIAA0807(S), PDZ Domain 1", "value": "1 (A450 nm 0-1)"}, {"measurement": "Classification", "setting": "[4]; [7]", "value": "1 (A450 nm 0-1)"}]}
{"sequence": "IVFIHSFLSAKVTRLGLLA (Biotin-IVFIIHSFLSAKVTRLGLLA) [alpha-1-syntrophin]", "values": [{"measurement": "Classification", "setting": "[4]; PDZ KIAA0807(S), PDZ Domain 1", "value": "1 (A450 nm 0-1)"}]}
{"sequence": "DGGARTEDEVQSYPSKHDYV (Biotin-DGGARTEDEVQSYPSKHDYV) [claudin 18]", "values": [{"measurement": "Classification", "setting": "[5]", "value": "1 (A450 nm 0-1)"}]}
